This is an account of results in patent publication US20180280528A1, “ANTIFOLATE CONJUGATES FOR TREATING INFLAMMATION” (ENDOCYTE, INC., priority 2015, published 2018).

Series [1] concerns Rat adjuvant arthritis (AIA). Nature of the series: Rat adjuvant arthritis (AIA) treatment studies. In kind it is in vivo. As to the method:
Female Lewis rats (175-200 g) were purchased from Harlan Sprague Dawley (Indianapolis, Ind.) and allowed to acclimate for 1 week. Generally, rats were fed a folate-deficient diet (Harlan Teklad) for 9-10 days prior to arthritis induction.
Rat adjuvant arthritis (AIA) was induced by intradermal inoculation (at the base of tail) of 0.45-0.46 mg of heat-killed Mycobacteria butyricum (BD Diagnostic Systems, Sparks, Md.) in 100 μL light mineral oil (Sigma). […] During the course of disease development, animals were weighed at least 3 times a week. Paw edema (degree of arthritis) were scored 3 times a week as follows: 0=no edema or arthritis; 1=swelling in one type of joint; 2=swelling in two types of joint; 3=swelling in three types of joint; 4=swelling of the entire paw. A total score for each rat is calculated by adding up the scores for each of the four paws, giving a maximum of 16 per animal.
On the first day of treatment, rats with desired arthritis scores were distributed evenly across the control and treatment groups (n=5). […] All compounds and conjugates were administered subcutaneously (s.c.) starting 9 days after arthritis induction with biweekly (BIW, Mondays and Thursdays) or once-a-week (QW, Mondays) dosing for two consecutive weeks. At the completion of each study (˜4 days after the last treatment), rats were euthanized by CO2 asphyxiation and processed for paw weight (cut at the hairline) and spleen weight.
The rat AIA model resembles many characteristics of human rheumatoid arthritis and it is very aggressive. […] The animals in the AIA control group were left untreated.

A further series in a line: Pharmacokinetics in rats. The note with it: female, Lewis, rat, in vivo, sc, 500 nmol/kg; for AUC(0-inf): AUCinf. As to the method: Each rat was used for collection of blood samples for a maximum of 4 time points. […] The samples were centrifuged for 3 minutes at 2000×g (Eppendorf 5417R centrifuge) to obtain plasma. The plasma samples were stored at −80° C. until LC-MS/MS analysis.
(§1) LC-MS/MS analysis utilized a Waters Acquity UPLC system paired with a Waters Quattro Premier XE tandem quadrupole mass spectrometer operating in ESI positive mode. Prior to injection, K3EDTA plasma samples were processed using a Phenomenex Strata X-A solid phase extraction (SPE) plate. All plasma samples were fortified with N-Maleoyl-β-alanine, mannitol, and acetic acid. Briefly, 50 μL of plasma diluted with 50 μL of internal standard solution and 500 μL 1000:4:1.5 water:ammonium hydroxide:formic acid was mixed and loaded onto a preconditioned Strata X-A SPE plate. Aqueous and organic washes were then applied followed by elution of all analytes with 300:200:7.5 methanol:water:formic acid. The samples were evaporated until approximately 30 μL remained in all wells and 30 μL of 9:1 water:ammonium hydroxide was then added. Finally, the plate was sealed, mixed, and centrifuged prior to transfer to the 2-8° C. Acquity autosampler. Note: During EC1669 analysis, EC0470 was converted to a hydrazone product for bioanalysis. Acetone (500 μL) was added to all samples after the first evaporation step followed by sealing all wells and heating at 50° C. for one hour. After this step, the acetone was evaporated and the extraction completed as described above.
(§2) A 10 μL sample volume was applied to the Waters BEH Shield RP18 100×2.1 mm, […] UPLC column operating at a flow rate of 0.4 mL/min while being maintained at 45° C. A gradient between mobile phase A (1000:4:1.5 water:ammonium hydroxide:formic acid) and mobile phase B (acetonitrile) was used to separate the analytes. The gradient was held at 2% B for the first 30 seconds of the chromatographic run followed by increasing to 20% B by 2.5 minutes. A rapid gradient from 60-90% B is then used to clean the column prior to equilibration at 2% B to complete the 4 minute run cycle.
(§3) For EC1669 MS/MS analysis, EC1669 and its known major metabolites, EC1886 and […], were optimized and monitored. […] In all cases, internal standard response was used to generate response ratios for each analyte. When calibrated, data was regressed using MassLynx 4.1 software. The table below lists transitions for analytes and internal standards monitored for LC-MS/MS bioanalysis.

A further series can be described thus: Pharmacokinetics in dogs. The note with it: beagle, dog, in vivo. As to the method: (§4) The samples were centrifuged under refrigeration for at least 10 minutes at 3000 rpm and the plasma generated stored at −20° C. until LC-MS/MS analysis.
as §4, §1, §2, §3

Series [2] can be described thus: Incubation with AIA rat macrophage cell lysates. The class given is in vitro ADME. The note with it: AIA rat macrophage lysate, pH 4.5, 37° C., 2 hours. As to the method:
Prior to immunization with adjuvant, female Lewis rats were fed a folate-deficient diet (Harlan Teklad, Indianapolis, Ind.) for approximately 10 days to reduce serum folate competition from high-folate-containing regular rodent chow. The rats were then inoculated intradermally (at the base of tail) with 0.5 mg heat-killed M. butyricum (BD Diagnostic Systems, Franklin Lakes, N.J.) in 100 μL light mineral oil (Sigma-Aldrich, St Louis, Mo., USA). The rats were then allowed to develop arthritis scores between 3 and 4 as described in Lu et al. (Arthritis Research & Therapy 2011, 13:R56). After rats developed severe joint inflammation, AIA rat peritoneal cells were isolated, plated, and whole cell lysates were prepared as described above with the exception that the lysates were resuspended in 0.1 M sodium acetate buffer, pH 4.5, to make a concentration of cell lysates equivalent to 10 million cells/mL of 0.1 M sodium acetate buffer, pH 4.5.
To 100 μL AIA rat macrophage, RAW264.7 or THP-1 FRβ cell lysates (each containing 10 million cells/mL 0.1 M sodium acetate, Ph 4.5) was added 2 μL of a 50 μM solution of EC2319 or EC1669 (Endocyte, Inc.). The solutions were incubated at 37° C. in a heat block (VWR International, Radnor, Pa.) for 2 hours. The reaction was terminated by the addition of 5 µL of stabilizer solution and 100 μL of acetonitrile containing d5-aminopterin (Endocyte, Inc.). […]

As a reminder, the AUC(0-inf) is total exposure, with the tail of the curve extrapolated. Lower therefore signals low exposure. By Tmax is commonly meant the time at which the peak concentration occurs. The Vd is the apparent volume that relates the amount in the body to the concentration in plasma or blood. Read a low Vd as confinement near the circulation. What is called clearance is the rate of elimination divided by the concentration. Lower therefore signals inefficient removal. Usually half-life stands for the time in which the quantity being followed falls by half. Lower therefore signals fast loss. As a reminder, the AUC(0-t) is exposure summed from dosing to a finite time, without extrapolation to infinity. Higher therefore signals high exposure. As a reminder, the Cmax is the highest concentration seen after dosing.

Regarding `COC(=O)[C@H](CSSC(C)(C)[C@H](NC(=O)[C@H](CCC(=O)NC[C@H](O)[C@@H](O)[C@H](O)[C@H](O)CO)NC(=O)[C@H](CCC(=O)O)NC(=O)[C@H](CCC(=O)NC[C@H](O)[C@@H](O)[C@H](O)[C@H](O)CO)NC(=O)[C@H](CCC(=O)O)NC(=O)[C@H](CCC(=O)NC[C@H](O)[C@@H](O)[C@H](O)[C@H](O)CO)NC(=O)CC[C@H](NC(=O)c1ccc(NCc2cnc3nc(N)[nH]c(=O)c3n2)cc1)C(=O)O)C(=O)O)NC(=O)CC[C@H](NC(=O)c1ccc(NCc2cnc3nc(N)nc(N)c3n2)cc1)C(=O)O` [EC2319], the “alleviating AIA symptoms (arthritis score, paw weight, spleen weight)” value in series [1] (Study 1, 1000 nmol/kg, QW, s.c., two consecutive weeks) was “as effective as EC1669, EC2285, and EC2318”. In addition, the “anti-arthritic activity with concurrent EC0923 (arthritis score, paw weight, spleen weight, body weight)” value in series [1] (Study 2, 500 nmol/kg BIW plus 500-fold molar excess EC0923 (250 μmol/kg)) is recorded as “fully blocked by EC0923”. In addition, in series [1] (Study 2, 500 nmol/kg, BIW), the body weight entry is “maintained a healthier body weight than EC2285” and the residual disease entry is on record as “minimal residual diseases”. Moreover, the “reducing arthritis scores and paw weights” value in series [1] (Study 2, 500 nmol/kg, BIW, s.c., two consecutive weeks) is “equally efficacious as EC1669 but significantly more active than EC2285”. For the same compound, in series [1] (Study 3, 500 nmol/kg, BIW), the anti-arthritic activity entry is “significant anti-arthritic activity” and the body weight entry is listed as “maintained a good body weight”. The “decreasing arthritis score, paw weight, and spleen weight” value in series [1] (Study 3, 500 nmol/kg, BIW, two consecutive weeks) is on record as “as efficacious as EC1669”. This compound also displayed an AUC(0-inf) in the series “Pharmacokinetics in rats” (rat plasma, EC2319 dosed SC 500 nmol/kg) of 1.02 µM·h. Moreover, the bioavailability in the series “Pharmacokinetics in dogs” (male, 2.43 mg/kg) amounted to 133%. In addition, in “Pharmacokinetics in dogs” (male, iv, 1 mg/kg), the time to peak (Tmax) was 1.8 min, the Vd came out at 0.41 L/kg, the clearance was 4.7 mL/min/kg and the half-life was 60.6 min. In the series “Pharmacokinetics in dogs” (male, sc, 2.43 mg/kg), the AUC(0-t) stood at 5.07 µM·h and the half-life was 72.6 min. Further, the aminopterin release entry in series [2] is listed as “aminopterin release was observed”.

Turning to `N=c1[nH]c(N)nc2ncc(CNc3ccc(C(=O)N[C@@H](CCC(=O)NNC(=O)OCCSSC[C@@H](NC(=O)[C@H](CCC(=O)NC[C@H](O)[C@@H](O)[C@H](O)[C@H](O)CO)NC(=O)[C@@H](CCC(=O)O)NC(=O)[C@H](CCC(=O)NC[C@H](O)[C@@H](O)[C@H](O)[C@H](O)CO)NC(=O)[C@@H](CCC(=O)O)NC(=O)[C@H](CCC(=O)NC[C@H](O)[C@@H](O)[C@H](O)[C@H](O)CO)NC(=O)CC[C@H](NC(=O)c4ccc(NCc5cnc6nc(N)[nH]c(=O)c6n5)cc4)C(=O)O)C(=O)O)C(=O)O)cc3)nc12` [EC1669, reference compound], in series [1] (Study 2, 500 nmol/kg, BIW), the body weight entry is “maintained a healthier body weight than EC2285” and the residual disease result was “minimal residual diseases”. For the same compound, in series [1] (Study 3, 500 nmol/kg, BIW), the anti-arthritic activity result was “significant anti-arthritic activity” and the body weight entry is “maintained a good body weight”. Besides, in the series “Pharmacokinetics in rats”, the Cmax came out at 472 nM, the time to peak (Tmax) was 30 min and the half-life was 27.8 min. In “Pharmacokinetics in rats” (rat plasma, EC1669 dosed SC 500 nmol/kg), this compound showed a total exposure AUC(0-inf) of 0.86 µM·h. For the same compound, the exposure AUC(0-t) in the series “Pharmacokinetics in rats” (AUClast, rat plasma, EC1669 dosed SC 500 nmol/kg) was found to be 0.857 µM·h. In the series “Pharmacokinetics in dogs” (sc, 2.4 mg/kg), the AUC(0-t) worked out at 4.07 µM·h, the peak level (Cmax) was 1390 nM, the Tmax came out at 71.4 min and the half-life was 59.6 min. For the same compound, in series [2], the aminopterin release entry is on record as “greater from EC1669 than from EC2319”.
